Test results published in the supplement of paper PMC9170038.

What follows are sequences tested on MS2 coat protein (assay: apparent KD of MS2 coat protein; higher = weaker reporter binding). Conditions: Eterna round: R107; input ligand: arginine 13.2 mM.
Summary of the method: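 On-chip transcription from Illumina sequencing clusters produced the designed RNA switches. These were titrated with SNAP-549-labelled MS2 coat protein (twofold steps, 0.7 or 1.5 nM to 3 µM) in 100 mM Tris-HCl pH 7.5, 80 mM KCl, 4 mM MgCl2, with or without constant ligand. The apparent KD given is the per-design median of normalised cluster binding-curve fits.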

Sequence	apparent KD of MS2 coat protein [nM]
AGAAUAUAGUCGGCCGCCACUCUACAAACAUGAGGAUCACCCAUGUUCACAUAGUGGAAACACAUGAGGACCGGGACAUAGGCAU [#17 Same State - Tryptophan B]	14

Same assay, conditions: Eterna round: R107; input ligand: none

Sequence	apparent KD of MS2 coat protein [nM]
UGUAUGGACUGAAGGAGCGGUAGAUAGCUUGAGGAUCACCCAAGUAAUAAGGCGAAAGCCUACCAGGUAGGUCGCAGUCCAUACU	25.4
UGACAUUGCUCAGAUACCAGACAUGAGCAUCAGCCAUGUACCAAGAGUACAUAUUAAAAUGUCCCUUGGCAGCUGAGCAAUGUCU [Mod of Eli's TheoBX5 #AlternateMS2 v1]	11
UAAUAGGUCCAGAACGUACCAGGUGAUCAACGAGGACCGGUACGGCCGCCACUCGAAACAUGAGGAUCACCCAUGUAACUGGACC [|T'-M'-Trp-Ms2|_Design 2_ML]	72.9
GACCGGUUAUAGCGCGAUUGUCUUGUGGAAGGAGCGCAGAGGGCUGCAGGUAGGUCGCCACAUGAGGAUCACCCAUGUCAGGAAA [Biraesge]	19.2
UAGAUAGAGGGAAGGAGCGCAGUAACAUAACAUGAGGAUCACCCAUGUAAGAAAUUAAUAAUGCAGGUAGGUCGCCCAAGAUGAU [#10 Same State - Arginine B]	13.6
CACGCACGAUCGGCCGCCACUCGUGUAGCUUACAUGAGGAUCACCCAUGUAUGUUCAUUCAUAUAGAGGACCGGGAUCGUGCGUG [#05 Same State - Tryptophan B]	12.8
UGUAUGUGAUCUGAUACCAGAGUUGAUAACCUGAGGAUCACCCUGGUAAGGCGAAAGCCACUCCCUUGGCAGCAGAUCGCAUACU	86.1
AGUCUUAAUGGAAGGAGCGCAGUCAUAACAUGAGGAUCACCCAUGUCGAGGUGAGGGUCAUUGCAGGUAGGUCGCCAUACUAGGA [Same State - Arginine B (Freestyle 2)]	181
CAAUAGAUAGCGGCCGCCACUUACUCAUGAGGUAACAACAUGAGGAUCACCCAUGUUUGAGGAUCAAGGACCGGGCUAUUUAUUG [AstrosSSTryB#7]	27.5
GCGAUGGAGCGAAGGAGCGGCUGUGACUACAUGAGGAUCACCCAUGUACGAUUGUAAGGUAGCCAGGUAGGUCGCGCUCCAUCGC [SSAB NP+V+V2 #18]	16.3
UCGGACAUGAGGAUCACCCAUGUAAAUCCUCGAGGACCGGUACGGCCGCCACUCGAACGAGUGGCGCGCGAGCGCGCGCUCGCGC [aGa]	43.8
UAUCGACACUGAAGGAGCGAGAUGACAAACAUGAGGAUCACCCAUGUUAUGGGUUGUUAAUCUCAGGUAGGUCGCAGUGGUCGCA [Same State Arginine B GF 18]	93.3
UCGGGAACAUGAGGAUCACCCAUGUCAGAAGGAGCGCUGAGAGAAGCAGGUAGGUCGCUGACGUAGGAGCUCUCUUCCUAUACGC [Exclusion - Arginine A]	30.6
AUGUAGAACCGAAGGAGCGCGAUGACAUGAGGAUCACCCAUGUAUUUGUGGUGGCUUCGAUCGCAGGUAGGUCGCGGAAGUAGUA [#04 Exclusion - Arginine B]	128
ACAUGAGGAUCACCCAUGUUAAACACAGAAGGAGCGUGAAGGAACACAGGUAGGUCGCUGUACUUAUUGAGUAUUCACUCGAUAC [JR_Nu_SSArginiA_Sub028]	12.5
GGGCCCGGGCGCGAGCCCGGGCCCAUUGAUACCAGUGAUAUAUAACGCCCUUGGCAGCGAAUCCUAACAUGAGGAUCACCCAUGU [5.G]	46.3
GUGUGCGGCACGGCCGCCACUGCGGUGGUGUGACAUGAGGAUCACCCAUGUUGUCAUGCGGCCCUUAGGACCGGGUGGCGUGCAC [#1 Exclusion - Tryptophan B Attempt #17 (HarryS)]	37.3

Same assay, conditions: Eterna round: R107; input ligand: theophylline 20 uM

Sequence	apparent KD of MS2 coat protein [nM]
UGUAUGGACUGAAGGAGCGGUAGAUAGCUUGAGGAUCACCCAAGUAAUAAGGCGAAAGCCUACCAGGUAGGUCGCAGUCCAUACU	30.8
UUUAACAAGAACGUCCUGAGUGACAAGCUACGAGGACCGGUACGGCCGCCACUCGUACCAAAACAUGAGGAUCACCCAUGUUAAA [theeternabot_exclusion_MS2_Trp_A_44]	19.3
AACCGAGGCUAUCCUCUCCGACUAUGUGAUACCAGAAUAAUUUUAUUCCCUUGGCAGCAUGACAUGAGGAUCACCCAUGUCUCUU [SSTheo A #10]	18
AGCGCUGUGCAUGAUACCAGCUACAUGAGGAUCACCCAUGUGCGUCAGAAAUGACUGUGUAGCCCUUGGCAGCAUAAAGCAUGUA [Exclusion - Theophylline B (Freestyle 8)]	26.6
UGACAUUGCUCAGAUACCAGACAUGAGCAUCAGCCAUGUACCAAGAGUACAUAUUAAAAUGUCCCUUGGCAGCUGAGCAAUGUCU [Mod of Eli's TheoBX5 #AlternateMS2 v1]	18.7
UAAUCCGGUCCUCGAUAGGUGAUCCUCUAACGAGGACCGGUACGGCCGCCACUCGAUAACAUGAGGAUCACCCAUGUAAUAAUAA [|T'-M'-Trp-Ms2|_Design16]	41.9
UUAAUCGUGCAUGAUACCAGUAUCCGUAGAUACAUGAGGAUCACCCAUGUCUGGUUGGAAUACCCUUGGCAGCAUGGGUUGAGGA [theeternabot_sameState_MS2_Theo_B_20]	224
AGAUUCGACACGGCCGCCACUUGUGGUGGAUUAUCCUAUGUAAGACAUGAGGAUCACCCAUGUACAAGGACCGGGUGUUGAGUCU [XTryp B #22]	336
UAAUAGGUCCAGAACGUACCAGGUGAUCAACGAGGACCGGUACGGCCGCCACUCGAAACAUGAGGAUCACCCAUGUAACUGGACC [|T'-M'-Trp-Ms2|_Design 2_ML]	95.3
AAUCAUGGAAACAUGACAUGAGGAUUACUCCGAGGACCGGUACGGCCGCCACUCGCGAGGAGGCGGACAUGAGGAUCACCCAUGU [#03 Tryptophan A Same State]	208
GACCGGUUAUAGCGCGAUUGUCUUGUGGAAGGAGCGCAGAGGGCUGCAGGUAGGUCGCCACAUGAGGAUCACCCAUGUCAGGAAA [Biraesge]	32.2
UUUUAAAGCAUGGCGUAUCGGAAAACCGAUACCAGUACAGAAAUGUACCCUUGGCAGCGGCAUUUUACAUGAGGAUCACCCAUGU [Ex Theophylline A 2]	18.4
UUAUAUUCUCAAUCGCCAUGUGCUUUAGAUACCAGUCUGAUAAAUGACCCUUGGCAGCUAGAGACAUGAGGAUCACCCAUGUCUU [theeternabot_exclusion_MS2_Theo_A_8]	13.9
UAGAUAGAGGGAAGGAGCGCAGUAACAUAACAUGAGGAUCACCCAUGUAAGAAAUUAAUAAUGCAGGUAGGUCGCCCAAGAUGAU [#10 Same State - Arginine B]	17
CACGCACGAUCGGCCGCCACUCGUGUAGCUUACAUGAGGAUCACCCAUGUAUGUUCAUUCAUAUAGAGGACCGGGAUCGUGCGUG [#05 Same State - Tryptophan B]	18.5
UGUAUGUGAUCUGAUACCAGAGUUGAUAACCUGAGGAUCACCCUGGUAAGGCGAAAGCCACUCCCUUGGCAGCAGAUCGCAUACU	67.4
CUACAUUUGUAGAAACCGGUCAACAUUAUUCGAGGACCGGUACGGCCGCCACUCGUAUCAUUUGAUACAUGAGGAUCACCCAUGU [Tryptophan A 8]	26.1
GGAAACCCGACGGCCGCCACUAACGGUCUCAAAAGAGGUUGAACACAUGAGGAUCACCCAUGUAAUAGGACCGGGUCGUGUGAAA [Design 1]	24.9
